This is an account of results in paper PMC4021333.

Substrate in the data set: NCC(=O)N[C@@H](Cc1ccccc1)C(=O)Nc1ccc([N+](=O)[O-])cc1
In words: purified protein. As to conditions: wild type; conditions of the Km measurement not told.

B1: DAP BII (Pseudoxanthomonas mexicana) (protein)
chain: GEGMWVPQQLPEIAGPLKKAGLKLSPQQISDLTGDPMGAVVALGGCTASFVSPNGLVVTNHHCAYGAIQLNSTAENNLIKNGFNAPTTADEVSAGPNARVFVLDEITDVTKDAKAAIAAAGDDALARTKALEAFEKKLIADCEAEAGFRCRLYSFSGGNTYRLFKNLEIKDVRLAYAPPGSVGKFGGDIDNWMWPRHTGDFAFYRAYVGKDGKPAAFSKDNVPYQPKHWLKFADQPLGAGDFVMVAGYPGSTNRYALAAEFDNTAQWTYPTIARHYKNQIAMVEAAGKQNADIQVKYAATMAGWNNTSKNYDGQLEGFKRIDAAGQKLREEAAVLGWLKGQGAKGQPALDAHAKLLDLLEQSKATRDRDLTLALFNNTAMLGSATQLYRLSIEREKPNAERESGYQERDLPAIEGGLKQLERRYVAAMDRQLQEYWLNEYIKLPADQRVAAVDAWLGGNDAAAVKRALDRLAGTKLGSTEERLKWFAADRKAFEASNDPAIQYAVAVMPTLLKLEQERKTRAGENLAARPVYLQALADYKKSQGEFVYPDANLSLRITFGNVMGYAPKDGMEYTPFTTLEGVVAKETGQDPFDSPKALLDAVAAKRYGGLEDKRIGSVPVNYLSDLDITGGNSGSPVLDAHGKLVGLAFDGNWESVSSNWVFDPKMTRMIAVDGRYLRWIMQEVYPAPQLLKEMNVGK
The term Km denotes the substrate concentration at which the rate is half of its maximum. With B1, the Km is 1400 µM.
